The source of these data is paper PMC4833410, “Structure-Guided Mutations in the Terminal Organelle Protein MG491 Cause Major Motility and Morphologic Alterations on Mycoplasma genitalium” (PLoS Pathogens, 2016).

For data set [1], the target named is MG491-Nt (residues 1 to 308) (Mycoplasma genitalium G37) (UniProt Q9ZB78). The experiment in a line: native MS; nano-ElectroSpray Ionization Mass Spectrometry, 10 μM MG491-Nt in 100 mM NH4OAc, acquisition range 500-8000 m/z.
The target is the same in data set [2]. The experiment in a line: crystal structure; vapour diffusion at 20°C, 0.2 M lithium sulphate, 25% PEG 3350, pH 6.5-8.5; space group P2(1)2(1)2, four subunits in the asymmetric unit; SAD on seleno methionine MG491-Nt, averaging between crystals.
Data set [3] shares this target. Briefly: SEC; Superdex 200 16/60 gel filtration column, 0.05 M Tris-HCl (pH 8.0), 0.15 M NaCl; apparent molecular weight. In general terms: In gel filtration, larger molecules generally elute earlier.
Data set [4] deals with the molecule itself. Briefly: crystal structure; vapour diffusion at 20°C, 0.2 M lithium sulphate, 25% PEG 3350, pH 6.5-8.5; space group P2(1)2(1)2, four subunits in the asymmetric unit; SAD on seleno methionine MG491-Nt, averaging between crystals.

Consider “MG491-Nt (residues 1 to 308) (from UniProt Q9ZB78 1-308) (domain or fragment)”, for which the stoichiometry N in data set [1], in data set [2] and in data set [3] was 4 each time.

B1: full length MG491 protein (residues 1 to 346) (natural protein)
chain: MVNNEYQQLNTLVESDDEADLVIANLVKQLNELKQILVSLDNQEASATAVTDKKEEEYNQNQSSFHNFSKETLQKQAKRGFLLLERCSLVGLQQLELEYVNLLGRSFDSYQQKTELLNNLKELVDEHFSDTEKIINTLEKIFDVIGGSEYTPVLNSFFNKLLSDPDPIQREIGLRQFIITLRQRFKKLSQKIDSSLKQIETEAKIATEQVQNSEVMFGPPDIANDHELNLNWPDSETDAILSSMENELEAALLAKHQEEPPLIVTPPSLIKPTVSQPEVEVVTPTNNTNFQPQVDLKPTDLKKQQKKKPLNFITRPVFKSNLPPKLSKDDIVHYAHQLLEKNTHNE
notes: MG491, terminal organelle protein of Mycoplasma genitalium G37, residues 1-346; the TGA codon of Trp232 was changed to TGG for expression in E. coli (no change of the protein); Cloned in pET21d between NdeI and XhoI; In the crystals the C-terminal region was lost by proteolysis; also called MG_491 gene product; wild type MG491; source: E. coli BL21 (DE3), purified (HisTrap HP, Superdex 200 16/60)
On to B1, for which the “stoichiometry N” value in data set [4] was 4.

B2: seleno methionine-labeled MG491-Nt (domain or fragment)
chain: MVNNEYQQLNTLVESDDEADLVIANLVKQLNELKQMLVSLDNQEASATAVTDKKEEEYNQNQSSFHNFSKETLQKQAKRGFLLLERCSLVGLQQLELEYVNLLGRSFDSYQQKTELLNNLKELVDEHFSDTEKIINTLEKIFDVIGGSEYTPVLNSFFNKLLSDPDPMQREIGLRQFIITLRQRFKKLSQKIDSSLKQIETEAKMATEQVQNSEVMFGPPDIANDHELNLNWPDSETDAILSSMENELEAALLAKHQEEPPLIVTPPSLIKPTVSQPEVEVVTPTNNTNFQPQVDLKPTDLKKQQKKK
modifications: seleno methionines at 36, 168 and 205
notes: MG491 of Mycoplasma genitalium G37, residues 1-308, with Ile36, Ile168 and Ile205 replaced by (seleno)methionine; residues 65-204, 67-203, 66-203 and 62-205 of subunits A-D are seen in the structure; also called Seleno methionine MG491-Nt; MG491-Nt variant with Ile36, Ile168, Ile205 replaced by seleno methionines; source: E. coli BL21 (DE3) in SelenoMet medium, purified (HisTrap HP, Superdex 200 …)
For the molecule B2, the “stoichiometry N” value in data set [4] was 4.

For orientation: stoichiometry N means a count of units in the complex or per binding partner.
